# In article PMC7893820:
# Molecular target: mGFP-tagged N-RasG12V (UniProt P01111)
# Experiment: FRET or BRET; FLIM-FRET in fixed HEK293 EBNA cells co-transfected with donor mGFP-NRasG12V and acceptor mCherry-PDE6δ plasmids (1:3); apparent FRET efficiency from the donor's lifetime; cells with scrambled siRNA in 0.1% DMSO (control), ICMT siRNA, or 2.5 μM deltarasin for 24 h
# Chain of mGFP-tagged N-RasG12V (P01111 whole entry G12V): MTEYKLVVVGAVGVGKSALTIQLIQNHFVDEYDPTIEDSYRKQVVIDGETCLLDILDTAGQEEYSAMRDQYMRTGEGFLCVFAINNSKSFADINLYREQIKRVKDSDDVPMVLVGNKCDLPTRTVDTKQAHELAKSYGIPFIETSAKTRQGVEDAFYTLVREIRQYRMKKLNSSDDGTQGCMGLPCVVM
# Chain of mCherry-tagged PDE6δ (O43924 whole entry, stated change not applied): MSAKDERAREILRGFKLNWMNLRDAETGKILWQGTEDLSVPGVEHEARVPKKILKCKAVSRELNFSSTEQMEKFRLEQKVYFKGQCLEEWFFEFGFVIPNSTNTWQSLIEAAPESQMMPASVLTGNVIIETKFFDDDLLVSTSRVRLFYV
substance,measurement,value
mCherry-tagged PDE6δ (from UniProt O43924 1-150) (natural protein),reduction of FRET efficiency with 2.5 μM deltarasin,50%
